Data as given in patent US20250145680A1 (REMD BIOTHERAPEUTICS, published 2025).
Positions count from the first letter of the chain named. In names and notes the source's numbering stands.

Target: T1, Type I IFN receptor (IFNAR) (UniProt P17181 28-557; P48551 27-515, limits assumed)
T1 sequence (looked up) 1: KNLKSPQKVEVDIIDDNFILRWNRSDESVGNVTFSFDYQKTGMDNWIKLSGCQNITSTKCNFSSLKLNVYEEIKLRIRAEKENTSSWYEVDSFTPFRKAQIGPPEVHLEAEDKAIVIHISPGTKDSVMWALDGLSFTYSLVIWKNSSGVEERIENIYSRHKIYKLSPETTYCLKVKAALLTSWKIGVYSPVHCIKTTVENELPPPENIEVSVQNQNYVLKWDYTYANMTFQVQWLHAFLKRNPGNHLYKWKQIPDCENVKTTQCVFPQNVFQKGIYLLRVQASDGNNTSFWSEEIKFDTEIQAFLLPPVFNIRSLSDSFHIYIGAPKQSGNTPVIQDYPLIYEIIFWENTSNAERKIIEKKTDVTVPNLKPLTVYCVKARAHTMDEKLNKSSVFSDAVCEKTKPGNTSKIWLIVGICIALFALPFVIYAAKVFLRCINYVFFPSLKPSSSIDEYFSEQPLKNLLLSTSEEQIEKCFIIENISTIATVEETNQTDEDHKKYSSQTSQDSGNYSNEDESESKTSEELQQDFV
T1 sequence (looked up) 2: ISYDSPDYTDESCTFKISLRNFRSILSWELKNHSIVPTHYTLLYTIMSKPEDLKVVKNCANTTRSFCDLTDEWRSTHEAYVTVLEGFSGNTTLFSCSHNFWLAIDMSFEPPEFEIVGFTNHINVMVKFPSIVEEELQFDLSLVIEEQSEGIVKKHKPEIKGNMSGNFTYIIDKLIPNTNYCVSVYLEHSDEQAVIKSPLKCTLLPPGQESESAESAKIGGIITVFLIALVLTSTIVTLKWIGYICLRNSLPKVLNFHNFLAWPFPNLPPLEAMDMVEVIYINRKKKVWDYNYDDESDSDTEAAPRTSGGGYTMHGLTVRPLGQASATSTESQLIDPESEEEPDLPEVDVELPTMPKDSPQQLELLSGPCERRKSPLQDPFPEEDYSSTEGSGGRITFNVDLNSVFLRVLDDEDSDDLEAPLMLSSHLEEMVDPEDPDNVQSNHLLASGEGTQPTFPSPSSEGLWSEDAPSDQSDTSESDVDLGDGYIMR
Experiment: cell-based or functional assay

B1: anti-PD-L1 Ab-con-IFN-α heterodimeric fusion molecule (FP-19), con-IFN-α (R150A), G8 linker (other)
light: DIQMTQSPSSVSASVGDRVTITCKTSQDVNTAVAWYQQKPGQAPRLLIYWASTRHTGVPDRFSGSGSGTDFTLTISSLQAEDVAVYYCQQHYNTPLTFGGGTKLEIKRTVAAPSVFIFPPSDEQLKSGTASVVCLLNNFYPREAKVQWKVDNALQSGNSQESVTEQDSKDSTYSLSSTLTLSKADYEKHKVYACEVTHQGLSSPVTKSFNRGEC
heavy 1: QMQLVQSGAEVKKTGSSVKVSCKASGYTFTSYSINWVRQAPGKGLEWVAYFYVGNGYTDYNEKFKGRVTMTRDTSTSTVYMELSSLRSEDTAVYYCARGGLPYYFDYWGQGTLVTVSSASTKGPSVFPLAPCSRSTSESTAALGCLVKDYFPEPVTVSWNSGALTSGVHTFPAVLQSSGLYSLSSVVTVPSSSLGTKTYTCNVDHKPSNTKVDKRVESKYGPPCPPCPAPEFLGGPSVFLFPPKPKDTLMISRTPEVTCVVVDVSQEDPEVQFNWYVDGVEVHNAKTKPREEQFNSTYRVVSVLTVLHQDWLNGKEYKCKVSNKGLPSSIEKTISKAKGQPREPQVCTLPPSQEEMTKNQVSLSCAVKGFYPSDIAVEWESNGQPENNYKTTPPVLDSDGSFFLVSRLTVDKSRWQEGNVFSCSVMHEALHNHYTQKSLSLSLGGGGGGGGGCDLPQTHSLGNRRALILLAQMRRISPFSCLKDRHDFGFPQEEFDGNQFQKAQAISVLHEMIQQTFNLFSTKDSSAAWDESLLEKFYTELYQQLNDLEACVIQEVGVEETPLMNVDSILAVKKYFQRITLYLTEKKYSPCAWEVVRAEIMASFSLSTNLQERLRRKE
heavy 2: QMQLVQSGAEVKKTGSSVKVSCKASGYTFTSYSINWVRQAPGKGLEWVAYFYVGNGYTDYNEKFKGRVTMTRDTSTSTVYMELSSLRSEDTAVYYCARGGLPYYFDYWGQGTLVTVSSASTKGPSVFPLAPCSRSTSESTAALGCLVKDYFPEPVTVSWNSGALTSGVHTFPAVLQSSGLYSLSSVVTVPSSSLGTKTYTCNVDHKPSNTKVDKRVESKYGPPCPPCPAPEFLGGPSVFLFPPKPKDTLMISRTPEVTCVVVDVSQEDPEVQFNWYVDGVEVHNAKTKPREEQFNSTYRVVSVLTVLHQDWLNGKEYKCKVSNKGLPSSIEKTISKAKGQPREPQVYTLPPCQEEMTKNQVSLWCLVKGFYPSDIAVEWESNGQPENNYKTTPPVLDSDGSFFLYSRLTVDKSRWQEGNVFSCSVMHEALHNHYTQKSLSLSLG
EC50 ratio1 (EC50 of FP/EC50 of IFN-α2b) on PD-L1-negative cells; IFN-α reporter assay (SEAP), PD-L1 blocked with REMD290: 33.9 fold

B2: anti-PD-L1 Ab-con-IFN-α heterodimeric fusion molecule (FP-20), con-IFN-α (A146D and R150A), G8 linker (other)
light: B1 light
heavy 1: B1 heavy 1 with A598D
heavy 2: B1 heavy 2
EC50 ratio1 (EC50 of FP/EC50 of IFN-α2b) on PD-L1-negative cells; IFN-α reporter assay (SEAP), PD-L1 blocked with REMD290: 1140 fold
